Experimental data reported in US8735553 (BEIGENE SWITZERLAND, dated 2014).
Residue numbers refer to the chain shown, from its start. Numbers in names are those of the source. One block for each binder: values may come before it.

Key:
[1] = molecular target: T1, wild-type human PD-1 recombinant protein (PD-1/His or PD-1/Fc, not said which) (human, UniProt Q15116 21-168); assay: ELISA on coated recombinant PD-1; cell carries the * mark (Fab version); ELISA cell marked *
T1 construct: also called WT PD-1
T1 sequence (Q15116 21-168 limits assumed): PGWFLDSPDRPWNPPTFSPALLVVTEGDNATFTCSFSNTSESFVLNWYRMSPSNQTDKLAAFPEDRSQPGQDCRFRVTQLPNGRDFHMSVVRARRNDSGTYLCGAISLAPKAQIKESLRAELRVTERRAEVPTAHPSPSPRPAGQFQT

[2] = molecular target: T2, human PD-1 expressed on cells (human, UniProt Q15116 25-288); assay: FACS on PD-1-expressing cells
T2 construct: whole, on cells; also called HuT78/PD-1; NK92MI/PD-1
T2 sequence (Q15116 25-288): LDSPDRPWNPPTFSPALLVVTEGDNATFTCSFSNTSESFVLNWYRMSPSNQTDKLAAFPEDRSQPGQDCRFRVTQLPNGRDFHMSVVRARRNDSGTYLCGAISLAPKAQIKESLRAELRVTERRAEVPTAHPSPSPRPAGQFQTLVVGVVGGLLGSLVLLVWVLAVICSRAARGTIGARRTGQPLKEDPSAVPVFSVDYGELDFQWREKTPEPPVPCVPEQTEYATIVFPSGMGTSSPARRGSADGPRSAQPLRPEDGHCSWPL

[3] = molecular target: T3, PD-1-EC/His (human, UniProt Q15116 21-168); assay: SPR (BIAcore T-200), human PD-1/His coupled to CM5 chip, Fab injected
T3 construct: AA 1-168 includes the signal peptide; also called PD-1/His; human PD-1/His
T3 sequence (Q15116 21-168): as the sequence (Q15116 21-168 limits assumed) above
Description: For affinity determinations of anti-PD-1 Fabs, SPR assays were used with the BIAcore™ T-200 instrument (GE Life Sciences). […] Association rates ($kon$) and dissociation rates ($koff$) were calculated using the one-to-one Langmuir binding model (BIA Evaluation Software, GE Life Sciences). The equilibrium dissociation constant (K_d) was calculated as the ratio $koff/kon$.

[4] = molecular target: T2, human PD-1 expressed on cells; assay: cell-based or functional assay
[5] = molecular target: T2, human PD-1 expressed on cells; assay: cell-based or functional assay; remark: listed apart in the source
[6] = molecular target: P3Z chimeric PD-1 receptor (human); assay: cell-based or functional assay
Chain of P3Z chimeric PD-1 receptor (human) (chain, as listed by the source mutant limits assumed): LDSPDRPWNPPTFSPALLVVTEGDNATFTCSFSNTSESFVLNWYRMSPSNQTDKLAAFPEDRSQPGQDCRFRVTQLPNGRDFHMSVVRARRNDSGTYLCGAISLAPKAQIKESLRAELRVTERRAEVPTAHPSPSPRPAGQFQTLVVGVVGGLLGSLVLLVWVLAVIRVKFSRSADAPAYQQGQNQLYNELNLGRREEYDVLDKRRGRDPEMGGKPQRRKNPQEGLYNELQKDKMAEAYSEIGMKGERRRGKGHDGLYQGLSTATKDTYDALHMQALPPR

[7] = molecular target: P3Z chimeric PD-1 receptor (human); assay: cell-based or functional assay; remark: listed apart in the source
[8] = molecular target: T2, human PD-1 expressed on cells; assay: cell-based or functional assay; remark: listed apart in the source
[9] = molecular target: T2, human PD-1 expressed on cells; assay: cell-based or functional assay; remark: listed apart in the source
[10] = molecular target: T2, human PD-1 expressed on cells; assay: cell-based or functional assay; remark: listed apart in the source
[11] = molecular target: P3Z chimeric PD-1 receptor (human); assay: cell-based or functional assay; remark: listed apart in the source
[12] = molecular target: T2, human PD-1 expressed on cells; assay: FACS on PD-1-expressing cells, goat anti-mouse IgG detection
[13] = molecular target: T4, human FcγRI (human, UniProt P12314 16-374); assay: flow cytometry, FcγR+ HEK293 cells
T4 construct: whole, on cells; also called FcγR1
T4 sequence (P12314 16-374): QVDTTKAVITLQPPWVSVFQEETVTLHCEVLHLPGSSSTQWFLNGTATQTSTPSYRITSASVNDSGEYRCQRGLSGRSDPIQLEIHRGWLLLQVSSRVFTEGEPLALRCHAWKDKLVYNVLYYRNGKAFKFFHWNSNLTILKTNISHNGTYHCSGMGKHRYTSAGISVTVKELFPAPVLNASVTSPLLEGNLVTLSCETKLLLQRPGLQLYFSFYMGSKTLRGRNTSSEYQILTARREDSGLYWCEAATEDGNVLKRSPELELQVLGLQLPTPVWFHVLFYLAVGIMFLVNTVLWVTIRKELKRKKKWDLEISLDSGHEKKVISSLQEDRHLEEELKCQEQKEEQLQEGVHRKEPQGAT
Description: (§1) Binding of various IgG4 mutants to FcγRs was determined by flow cytometry. In brief, a series of HEK293 transfectants expressing human FcγRs were established. These transfectants expressed FcγRI, FcγRIIA, FcγRIIB or FcγRIIIA Multi-subunit FcγRs (i.e., FcγR1 and FcγRIIIA) were co-expressed with FcRγ. Polymorphic variants (i.e., FcγRIIA H131 and R131, FcγRIIIA F158 and V158) were also included.

[14] = molecular target: T5, human FcγRIIA (H131) (human, UniProt P12318 34-317); assay: flow cytometry, FcγR+ HEK293 cells
T5 construct: whole, on cells
T5 sequence (looked up): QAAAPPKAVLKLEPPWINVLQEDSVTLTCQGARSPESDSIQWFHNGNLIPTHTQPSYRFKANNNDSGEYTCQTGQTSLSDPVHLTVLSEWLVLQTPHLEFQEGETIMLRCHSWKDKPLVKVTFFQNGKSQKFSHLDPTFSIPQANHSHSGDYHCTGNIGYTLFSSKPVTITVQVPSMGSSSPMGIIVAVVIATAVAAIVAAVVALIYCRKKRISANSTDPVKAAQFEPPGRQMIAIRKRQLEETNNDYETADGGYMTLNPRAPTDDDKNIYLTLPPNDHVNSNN
Description: as §1

[15] = molecular target: T6, human FcγRIIA (R131) (human, UniProt P12318 34-317); assay: flow cytometry, FcγR+ HEK293 cells
T6 construct: whole, on cells
T6 sequence (looked up): T5 sequence (looked up) with H134R
Description: as §1

[16] = molecular target: T7, human FcγRIIIA (F158) (human, UniProt P08637 17-254); assay: flow cytometry, FcγR+ HEK293 cells
T7 construct: whole, on cells
T7 sequence (P08637 17-254): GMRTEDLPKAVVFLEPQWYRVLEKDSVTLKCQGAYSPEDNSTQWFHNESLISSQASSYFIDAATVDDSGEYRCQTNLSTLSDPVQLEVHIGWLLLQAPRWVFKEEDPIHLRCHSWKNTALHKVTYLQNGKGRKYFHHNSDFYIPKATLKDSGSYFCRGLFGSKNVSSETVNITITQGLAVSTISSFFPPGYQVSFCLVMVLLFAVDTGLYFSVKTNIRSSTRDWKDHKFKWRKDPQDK
Description: as §1

- EC50 [1]: 0.091 µg/mL
B1: hu326-4A3 Fab (Fab, V domains shown)
VH: QVQLVQSGSELKKPGASVKVSCKASGYTFTNYGMNWVRQAPGQGLKWMGWINNNNAEPTYAQDFRGRFVFSLDTSASTAYLQISSLKTEDTAVYYCARDVMDYWGQGTLVTVSS
VL: DIVLTQSPASLAVSPGQRATITCRASESVDNYGYSFMHWYQQKPGQPPKLLIYRASNLESGVPARFSGSGSGTDFTLTINPVEAEDTANYYCQQSKEYPTFGGGTKVEIK
notes: Fab: VH on human IgG2 CH1 (C232S, C233S, Kabat) with C-terminal c-Myc-His8 tag; also called hu326-4A3 (Fab version)

- IL-2 release, EC50 (HuT78/PD-1 + HEK293/OS8/PD-L1) [4]: 0.083 µg/mL
- IL-2 release, EC50 (HuT78/PD-1 + HEK293/OS8/PD-L2) [5]: 0.032 µg/mL
- Inhibition of IL-2 secretion, IC50 (HuT78/P3Z + HEK293/PD-L1) [6]: 0.083 µ/ml
- Inhibition of IL-2 secretion, IC50 (HuT78/P3Z + HEK293/PD-L2) [7]: 0.02 µg/mL
- IFN-γ secreted, EC50 (NK92MI/PD-1 + SK-MES-1/PD-L1) [8]: 0.4 µg/mL
- Assay-1 IL-2 release, EC50 (HuT78/PD-1 + HEK293/OS8/PD-L1) [10]: 0.11 µg/mL
- Assay-1 IL-2 release, Top line (HuT78/PD-1 + HEK293/OS8/PD-L1) [10]: 346 pg/mL
- Assay-2 IL-2 release, IC50 (HuT78/P3Z + HEK293/PD-L1) [11]: 0.11 µg/mL
- Assay-2 IL-2 release, Max inhibition (HuT78/P3Z + HEK293/PD-L1) [11]: 99.5%
- EC50 [12]: 0.11 µg/mL
B4: murine mAb 317 (antibody, V domains shown)
VH: QVQLKESGPGLVAPSKNLSITCTVSGFSLTSYGVHWIRQPPGKGLEWLGVIWAGGSTNYNSALMSRLSISKDNSRSQVFLRMNSLQTDDTAMYYCARAYGNYWYIDVWGAGTTVTVSS
VL: DIVMTQTPKFLLVSAGDRVTITCKASQSVSNDVAWYQQKPGQSPKLLINYAFHRFTGVPDRFTGSGYGTDFIFTISTVQAEDLAVYFCHQAYSSPYTFGGGTKLEMK
notes: Murine hybridoma antibody; also called mu317
- Cytotoxicity of NK92MI/PD-1 cells against SK-MES-1/PD-L1, EC50 [9]: 0.5 µg/mL

More lines, now with the values behind:

B2: hu326-3B1 (antibody, V domains shown)
VH: B1 VH with A56G
VL: B1 VL with G72R, E85N
notes: Humanized mAb
- EC50 [2]: 0.165 µg/mL

B3: hu326-3G1 Fab (Fab, V domains shown)
VH: B1 VH with S9P, A56G
VL: B1 VL with G72R, E85N
notes: Fab: VH on human IgG2 CH1 (C232S, C233S, Kabat) with C-terminal c-Myc-His8 tag
- Kd [3]: 1 nM

B5: hu317-4B6/IgG4mt6 (antibody)
heavy: QVQLQESGPGLVKPSETLSLTCTVSGFSLTSYGVHWIRQPPGKGLEWIGVIYADGSTNYNPSLKSRVTISKDTSKNQVSLKLSSVTAADTAVYYCARAYGNYWYIDVWGQGTTVTVSSASTKGPSVFPLAPCSRSTSESTAALGCLVKDYFPEPVTVSWNSGALTSGVHTFPAVLQSSGLYSLSSVVTVPSSSLGTKTYTCNVDHKPSNTKVDKRVESKYGPPCPPCPAPPVAGGPSVFLFPPKPKDTLMISRTPEVTCVVVAVSQEDPEVQFNWYVDGVEVHNAKTKPREEQFNSTYRVVSVLTVLHQDWLNGKEYKCKVSNKGLPSSIEKTISKAKGQPREPQVYTLPPSQEEMTKNQVSLTCLVKGFYPSDIAVEWESNGQPENNYKTTPPVLDSDGSFFLYSRLTVDKSRWQEGNVFSCSVMHEALHNHYTQKSLSLSLGK
VL: DIVMTQSPDSLAVSLGERATINCKSSESVSNDVAWYQQKPGQPPKLLINYAFHRFTGVPDRFSGSGYGTDFTLTISSLQAEDVAVYYCHQAYSSPYTFGQGTKLEIK
notes: Light chain constant region not restated for this format; copies: 2 + 2
- MFI [13]: 1 MFI

B6: hu317-1/IgG4mt6 (antibody)
heavy: B5 heavy with I48L, Y52W, D54G, V67L, T73N, N76S, L82M
VL: B5 VL with S25A, E27Q, Q100G
notes: as for B5
- MFI [14]: 1 MFI
- MFI [15]: 0.8 MFI
- MFI [16]: 0.9 MFI
